Target: T1, muCDH19(44-139)::huCDH19(142-249)::muCDH19(248-770) with Flag tag (construct D, Hu EC2) (human/mouse chimera)
T1 construct: leader left out; the entry starts at residue 44; also called C137913
T1 chain: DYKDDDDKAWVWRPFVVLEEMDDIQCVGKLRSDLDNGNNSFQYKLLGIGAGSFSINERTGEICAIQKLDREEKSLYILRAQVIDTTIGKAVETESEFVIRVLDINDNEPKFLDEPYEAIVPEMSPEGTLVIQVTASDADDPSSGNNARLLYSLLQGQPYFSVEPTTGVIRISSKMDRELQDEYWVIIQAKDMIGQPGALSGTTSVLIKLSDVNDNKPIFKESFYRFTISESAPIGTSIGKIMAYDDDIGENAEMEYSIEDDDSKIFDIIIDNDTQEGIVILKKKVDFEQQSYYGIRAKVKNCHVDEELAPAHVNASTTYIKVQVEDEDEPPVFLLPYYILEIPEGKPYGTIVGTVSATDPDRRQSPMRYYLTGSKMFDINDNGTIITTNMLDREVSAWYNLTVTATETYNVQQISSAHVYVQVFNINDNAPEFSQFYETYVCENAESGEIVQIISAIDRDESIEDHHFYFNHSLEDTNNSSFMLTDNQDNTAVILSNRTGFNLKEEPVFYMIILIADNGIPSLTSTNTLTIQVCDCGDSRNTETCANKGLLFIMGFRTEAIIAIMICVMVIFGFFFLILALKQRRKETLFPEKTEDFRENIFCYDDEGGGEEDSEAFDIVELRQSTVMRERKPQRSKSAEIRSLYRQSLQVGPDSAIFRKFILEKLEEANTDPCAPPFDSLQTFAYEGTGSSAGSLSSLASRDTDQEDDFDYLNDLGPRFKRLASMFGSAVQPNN
Assay: flow cytometry, transfected 293T cells
From the text: The experiment included assaying the anti-CDH19 antibodies against mouse Cadherin19 to determine suitability for binning on these human/mouse chimeras.

binding result: binds
B1: anti-CDH19 antibody 2G6 (Ab ID 13588) (antibody, human IgG1, lambda, V domains shown)
VH: QVQLVESGGGVVQPGRSLRLSCAASGFTFSSYGMHWVRQAPGKGLEWVAFIWYDGSNKYYADSVKDRFTISRDNSKNTLYLQMKSLRAEDTAVYYCARRAGIIGTIGYYYGMDVWGQGTTVTVSS
VL: SYELTQPPSVSVSPGQTASITCSGDRLGEKYTCWYQQRPGQSPLLVIYQDTKRPSGIPERFSGSNSGNTATLTISGTQAMDEADYYCQAWDSSTVVFGGGTKLTVLG
notes: Bin 4
